The source of these data is patent US20240067748A1 (NONA BIOSCIENCES SUZHOU, published 2024).

Assay [1] deals with T1, human TROP2 protein (Sino Biological, #10428-H08H) (human, UniProt P09758 27-274).
T1 construct: bought protein; also called human Trop2 protein antigen (His tag); not shown: His tag
T1 sequence (looked up): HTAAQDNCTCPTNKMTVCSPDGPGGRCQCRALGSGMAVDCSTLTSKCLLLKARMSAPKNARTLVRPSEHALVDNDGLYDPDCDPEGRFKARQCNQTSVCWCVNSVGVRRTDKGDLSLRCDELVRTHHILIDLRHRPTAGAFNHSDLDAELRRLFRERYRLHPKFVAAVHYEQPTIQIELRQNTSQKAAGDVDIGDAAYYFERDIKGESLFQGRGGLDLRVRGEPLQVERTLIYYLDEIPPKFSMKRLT
The experiment in a line: BLI, Octet RED96, AHC sensor. In short, it runs like this: (§1)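 Biolayer interferometry: human or monkey Trop2 at 200 nM in PBS pH 7.4 with 0.1% BSA and 0.02% Tween 20 captured on AHC sensors, then 40 nM antibody associated 3 min and dissociated 5 min at 30 °C. Association, dissociation constants and affinity fitted from real-time signals.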

The target in assay [2] is T1, human TROP2 protein (Sino Biological, …). As to the kind of experiment: BLI epitope binning (Octet), biotinylated human Trop2 on SA sensor; row = primary antibody; competitor (secondary antibody, column): PR001166. As for the experimental part:
(§2) The biotinylated mixture after the incubation was washed three times with PBS and a Zeba centrifugal desalting column (Thermo Fisher, #89882) to remove excess biotin. The biotinylated Trop2 protein was captured by an SA sensor (Pall ForteBio, #18-5019) with the loading baseline set at 0.3 nm. The sensor was immersed in a well of assay buffer containing 50 nM primary antibody for 300 s. […] The binding assay was performed by comparing the binding of the secondary antibody to Trop2 in the presence of the primary antibody to the blocking of the primary antibody itself.

Assay [3] shares this target. The experiment in a line: BLI epitope binning (Octet), biotinylated human Trop2 on SA sensor; row = primary antibody; competitor (secondary antibody, column): hRS7. How it is done:
as §2
(In general: BLI is a label-free optical method that tracks binding on a fibre tip over time.)

Another assay addresses T2, human Trop2 on cells (human, UniProt P09758 27-323).
T2 sequence (looked up): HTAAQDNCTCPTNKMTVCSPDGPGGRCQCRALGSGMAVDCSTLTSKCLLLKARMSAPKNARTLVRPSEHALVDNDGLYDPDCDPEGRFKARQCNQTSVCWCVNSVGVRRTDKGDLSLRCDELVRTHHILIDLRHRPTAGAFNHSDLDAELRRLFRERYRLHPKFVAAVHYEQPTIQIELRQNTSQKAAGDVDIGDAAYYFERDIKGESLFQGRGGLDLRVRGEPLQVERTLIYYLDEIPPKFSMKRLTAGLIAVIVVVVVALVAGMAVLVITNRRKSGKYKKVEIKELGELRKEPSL
The experiment in a line: cell-based or functional assay.

Assay [4] addresses T1, human TROP2 protein (Sino Biological, …). As to the kind of experiment: BLI epitope binning (Octet), biotinylated human Trop2 on SA sensor; row = primary antibody; competitor (secondary antibody, column): PR001142. How it is done: as §2
Assay [5] addresses T3, monkey Trop2 on CHO-K1 cells (monkey, UniProt A0A2K5UE71 27-323).
T3 construct: also called CHO-K1/monkey Trop2
T3 sequence: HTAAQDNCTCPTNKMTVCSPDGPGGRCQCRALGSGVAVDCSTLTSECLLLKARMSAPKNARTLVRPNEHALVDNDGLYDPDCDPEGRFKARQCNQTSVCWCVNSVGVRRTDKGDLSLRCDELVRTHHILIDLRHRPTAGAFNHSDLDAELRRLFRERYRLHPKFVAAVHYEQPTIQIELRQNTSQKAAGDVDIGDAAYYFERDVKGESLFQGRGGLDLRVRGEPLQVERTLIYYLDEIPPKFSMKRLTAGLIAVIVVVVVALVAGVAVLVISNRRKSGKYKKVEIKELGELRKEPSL
As to the kind of experiment: flow cytometry on CHO-K1/monkey Trop2 cells. As for the experimental part: CHO-K1/monkey Trop2 cells (Chempartner, Shanghai, China) and CHO-K1 blast cells were each digested with 3 mL of TrypLE, and the digestion was stopped with 7 mL of the corresponding medium. […] The cell solution was centrifuged, and the cells were washed once with PBS+0.5% BSA. […] The cells were washed once with PBS+0.5% BSA. The cells were incubated at 4° C. for 1 h in the dark with 100 μL of Alexa Fluor 488 goat anti-human IgG (Life technologies, #A-11013) diluted at 1:1000, and washed twice with PBS+0.5% BSA. The cells were resuspended in 200 μL of PBS+0.5% BSA. The suspension was centrifuged at 4° C. for 5 min at 2000 rpm and tested using a FACS verse flow cytometer or NovoCyte flow cytometer (ACEA Biosciences). All procedures were performed on ice.

Assay [6] addresses T4, monkey Trop2 protein (Sino Biological, #90893-C08H) (monkey, UniProt A0A2K5UE71 27-274).
T4 construct: bought protein; also called monkey Trop2 protein antigen (His tag)
T4 sequence: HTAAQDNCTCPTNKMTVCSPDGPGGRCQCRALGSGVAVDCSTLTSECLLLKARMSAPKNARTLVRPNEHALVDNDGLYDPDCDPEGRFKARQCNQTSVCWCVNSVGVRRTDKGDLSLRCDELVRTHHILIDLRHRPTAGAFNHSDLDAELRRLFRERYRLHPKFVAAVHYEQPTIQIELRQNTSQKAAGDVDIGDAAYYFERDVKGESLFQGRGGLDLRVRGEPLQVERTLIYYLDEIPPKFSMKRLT
The experiment in a line: BLI, Octet RED96; ratio against KD for human Trop2 protein. A digest of the protocol: as §1

B1: PR001166 (antibody, human IgG1, kappa, V domains shown)
VH: QVQLQESGPGLVKPSETLSLTCAVSGYSISSGYFWAWIRQPPGKGLEWIGSIYHSGRTHYNPSLKSRVIISLDTSKNQFSLKLRSVTAADSAVYYCAREGYASGSYYWGQGTLVTVSS
VL: EIVMTQSPATLSVSPGERATLSCRSSQSVNNYLAWFQQKPGQAPRLLIYDSSTRATGIPARFSGSGSGTEFTLTISSLQSEDFAFYFCQQYENWPLTFGGGTKVEIKR
notes: fully human IgG1/kappa; also called antibody No. (27)
In the case of B1, in assay [1], the Kd – broadly, the concentration at which binding is half-saturated – was < 0.001 nM; the Response was 0.324; the off-rate (koff) (usually a measure of how fast the partners let go of each other) was < 1e-07 s⁻¹; the on-rate constant (kon) (as a rule, the second-order rate constant of association) was determined as 470000 M⁻¹ s⁻¹. For the same molecule, the “Inhibition rate (%)” value in assay [2] amounted to 102%. The “Inhibition rate (%)” value in assay [3] stood at 21.8%. In the assay with human Trop2 on cells, the “ADCP (Donor A1925144#) EC50(nM), BxPC-3 + macrophages” value amounted to 0.0311 nM; the “ADCP (Donor A1925144#) Maximum phagocytosis %” value worked out at 9.33%; the “ADCP (Donor A1925144#) Minimum phagocytosis %” value amounted to 2.05%; the “ADCP (Donor A19143143#) EC50(nM), BxPC-3 + macrophages” value worked out at 0.161 nM. Moreover, in the assay with human Trop2 on cells, the “ADCP (Donor A19143143#) Maximum phagocytosis %” value stood at 40.2% and the “ADCP (Donor A19143143#) Minimum phagocytosis %” value was determined as 2.04%. The “Inhibition rate (%)” value in assay [4] is 85.4%. In addition, in assay [5], the EC50 – broadly, the concentration needed to bring the measured effect to its halfway point – came out at 1.97 nM and the “Maximum MFI value” worked out at 51500 MFI.

B2: PR001162 (antibody, human IgG1, kappa, V domains shown)
VH: QVQLVESGGGVVQPGTSLRLSCVASGFTFSNDGMHWVRQAPGMGLEWVAIMWFDGGSKYYADSVKGRFTISRDNSKNTLYLQMNNLRAEDTAVYYCARDHPHYLGSGSFDYWGQGTLVTVSS
VL: EIVLTQSPATLSLSPGERATLSCRASQSVSSYLAWYQQKPGQAPRLLIYDASNRATGIPARFSGSGSGTDFTLTISSLQAEDVAVYYCQQYYSTPYTFGQGTKLEIKR
notes: fully human IgG1/kappa; also called antibody No. (23)
In assay [1], B2 registered a Kd of 1.7 nM, a Response of 0.366, a koff of 0.000507 s⁻¹ and an on-rate constant (kon) of 298000 M⁻¹ s⁻¹. In addition, in assay [6], the “KD (monkey)/KD (human)” value came to 2.16. For the same molecule, in assay [5], the EC50 was 2.25 nM and the “Maximum MFI value” was 45500 MFI.

B3: PR001128 (antibody, human IgG1, kappa, V domains shown)
VH: QVQLQESGPGLVKPSGTLSLTCAVSGGSISSSNWWSWVRQPPGKGLEWIGEIFHSGTTYYNPSLKSRVTILVDKSKNQFSLKLSSVTAADTAVYYCARDNTKSWDHFDHWGQGTLVTVSS
VL: EIVLTQSPATLSLSPGERATLSCRASQSVGSYLAWYQQKPGQAPSLLIYDASNRATGIPARFSGSGSGTDFTLTISSLEPEDFAVYYCQQRTNWYTFGQGTKLEIKR
notes: fully human IgG1/kappa; also called antibody No. (1)
Turning to B3, in assay [1], the dissociation constant Kd was < 0.001 nM, the Response came to 0.402, the off-rate constant (koff) is < 1e-07 s⁻¹ and the kon stood at 130000 M⁻¹ s⁻¹. Besides, in assay [5], a half-maximal effect (EC50) was put at 2.57 nM and the “Maximum MFI value” was 53200 MFI.

B4: PR001139 (antibody, human IgG1, kappa, V domains shown)
VH: QVQLVESGGGVVQPGRSLRLSCAASGFTFSSFGMQWVRQGPGKGLEWVAVMWFDGSNKYYVDSVKGRFTISRDNSKNTLYLQMNSLRAEDTAVYYCARLDFSGWPLIDYWGQGTLVTVSS
VL: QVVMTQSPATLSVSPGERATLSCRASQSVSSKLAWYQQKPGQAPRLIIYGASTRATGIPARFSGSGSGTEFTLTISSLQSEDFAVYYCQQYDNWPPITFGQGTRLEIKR
notes: fully human IgG1/kappa; also called antibody No. (8)
In assay [1], B4 showed a Kd of 4.79 nM, a Response of 0.336, a koff of 0.000426 s⁻¹ and a kon of 89000 M⁻¹ s⁻¹. In assay [6], the “KD (monkey)/KD (human)” value was 1.62. Further, in assay [5], the response was half-maximal at 3.33 nM (EC50) and the “Maximum MFI value” came to 46400 MFI.

B5: PR001133 (antibody, human IgG1, kappa, V domains shown)
VH: QVNLVESGGGVVQPGRSLKLSCAASGFTFSSYGMHWVRQAPGKGLEWVALIWSDGTNRYYTESVKGRFTISRDNSKNTLSLQMKSLRAEDTAVYYCAKDGWGTYGEYFQHWGQGTLVTVSS
VL: DIQMTQSPSSLSASVGDRVTITCRASQNINSYLHWYQQKPGKAPKLLIYAASSLQSGVPSRFSGSGSGTDFTLTISSLQPEDFAIYYCQQSYSIPPITFGQGTRLEIKR
notes: fully human IgG1/kappa; also called antibody No. (5)
B5: in assay [1], the equilibrium dissociation constant (Kd) was determined as 1.1 nM, the Response turned out to be 0.386, the off-rate (koff) stood at 9.72e-05 s⁻¹ and the kon came out at 88500 M⁻¹ s⁻¹. Besides, the “KD (monkey)/KD (human)” value in assay [6] stood at 2.27. In assay [5], the EC50 turned out to be 2.87 nM and the “Maximum MFI value” is 55300 MFI.

B6: PR001165 (antibody, human IgG1, kappa, V domains shown)
VH: QVQLVESGGGVVQPGRSLRLSCEASGFTFSHYGMHWVRQAPGKGLEWVAVIWYDGIKTYYVESVKGRFTISRDNSKNTLNLQMNRLRAEDTAVYYCARDGGFGESNYYGLDVWGQGTTVTVSS
VL: DIQLTQSPSFLSASVGDRVTITCRASQGISSYLGWYQQKPGKAPKLLIYIASTLQSGVPSRFSGSGSGTEFTLTISSLQPEDFATYYCQQLNSYPYTFGQGTKLEIKR
notes: fully human IgG1/kappa; also called antibody No. (26)
For the molecule B6, in assay [1], the equilibrium dissociation constant (Kd) is < 0.001 nM, the Response came out at 0.38, the “fold lower KD than the reference antibody Tab (hRS7)” value is ~10 fold and the koff is < 1e-07 s⁻¹. This molecule also yielded a kon in assay [1] of 164000 M⁻¹ s⁻¹. In assay [2], the “Inhibition rate (%)” value turned out to be 5.24%. Moreover, in assay [3], the “Inhibition rate (%)” value came out at 96.4%. Further, in the assay with human Trop2 on cells, the “ADCP (Donor A1925144#) EC50(nM), BxPC-3 + macrophages” value is 0.0683 nM; the “ADCP (Donor A1925144#) Maximum phagocytosis %” value turned out to be 12.5%; the “ADCP (Donor A1925144#) Minimum phagocytosis %” value was determined as 2.25%; the “ADCP (Donor A19143143#) EC50(nM), BxPC-3 + macrophages” value is 0.178 nM. In the assay with human Trop2 on cells, the “ADCP (Donor A19143143#) Maximum phagocytosis %” value was 42.7% and the “ADCP (Donor A19143143#) Minimum phagocytosis %” value is 1.37%. Besides, the “Inhibition rate (%)” value in assay [4] turned out to be 98.1%.

B7: PR001130 (antibody, human IgG1, kappa, V domains shown)
VH: QVQLQESGPGLVKPSGTLSLTCAVSGDSISSHNWWSWVRQPPGKGLEWIGEIYHSGITSYNPSLKSRVTISVDKSKNQFSLKLNSVTAADTAMYYCARGSGVISYFDYWGQGTLVTVSS
VL: DIQMTQSPSTLSASVGDRVTITCRASQSIGNWLAWYQQKPGKAPKLLIYKASSLESGVPSRFSGSGSGTEFTLTISSLQPDDFATYYCQQYDSYSPITFGQGTRLEIKR
notes: fully human IgG1/kappa; also called antibody No. (2)
As to B7, in assay [1], the Kd is < 0.001 nM, the Response is 0.357, the off-rate constant (koff) is < 1e-07 s⁻¹ and the association rate constant (kon) worked out at 55200 M⁻¹ s⁻¹. Further, in assay [5], the 50% effective concentration (EC50) was 6.26 nM and the “Maximum MFI value” stood at 61700 MFI.
